Experimental data published in article PMC3095777, “Structure and Activity of a Novel Archaeal β-CASP Protein with N-Terminal KH Domains” (Structure(London, England:1993), 2011).

T1: MTH1203 (Methanothermobacter thermautotrophicus …, UniProt O27271 1-636)
T1 sequence: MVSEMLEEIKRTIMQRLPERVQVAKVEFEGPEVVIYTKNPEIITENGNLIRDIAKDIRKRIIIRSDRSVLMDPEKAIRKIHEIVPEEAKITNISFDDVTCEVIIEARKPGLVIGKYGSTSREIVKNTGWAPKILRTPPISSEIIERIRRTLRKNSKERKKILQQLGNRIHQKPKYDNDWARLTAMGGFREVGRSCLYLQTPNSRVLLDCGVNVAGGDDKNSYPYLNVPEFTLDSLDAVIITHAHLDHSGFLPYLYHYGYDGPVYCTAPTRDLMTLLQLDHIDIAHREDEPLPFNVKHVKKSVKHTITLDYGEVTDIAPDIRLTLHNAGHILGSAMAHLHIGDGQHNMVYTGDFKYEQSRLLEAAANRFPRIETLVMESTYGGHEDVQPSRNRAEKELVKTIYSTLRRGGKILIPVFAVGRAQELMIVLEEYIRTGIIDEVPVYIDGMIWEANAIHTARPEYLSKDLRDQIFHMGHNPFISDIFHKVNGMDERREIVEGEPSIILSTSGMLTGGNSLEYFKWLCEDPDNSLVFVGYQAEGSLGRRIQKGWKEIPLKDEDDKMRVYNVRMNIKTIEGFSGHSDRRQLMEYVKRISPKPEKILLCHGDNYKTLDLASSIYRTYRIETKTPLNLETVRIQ

B1: MTH1203 (enzyme, Methanothermobacter thermautotrophicus, UniProt O27271 1-636, looked up)
chain: T1 sequence
notes: MTH1203 from Methanothermobacter thermautotrophicus strain delta H; mth1203 gene amplified from genomic DNA, cloned into pETYSBLIC-3C; predicted molecular mass 73.1 kDa; residues up to 636 named; Dimer at 0.5-0.7 M NaCl or KCl, monomer at 1 M NaCl; full cloning and purification details are in the Supplemental Experimental Procedures; also called β-CASP metallo-β-lactamase family nuclease; source: …

Assays:
MTH1203 = biological target: T1, MTH1203; assay: fluorescence anisotropy; 20 mM Tris pH 8.0, 1 M NaCl, 5 nM 5'-fluorescein RNA; temperature not stated; conditions: protein: recombinant; tags: His-tag (His-tagged construct used in titrations); label: 5' fluorescein; single strand
[1] = biological target: the molecule itself; assay: SEC-MALS; size exclusion chromatography in line with multiangle laser light scattering; MTH1203 alone; 0.5 M NaCl, or 0.7 M NaCl or KCl

Binder | binding result (MTH1203) | also measured
GGGGGGG (ssRNA) [G7] | no binding | 
CCCCCCC (ssRNA) [C7] | no binding | 
UUUUUUU (ssRNA) [U7] |  | Kd (MTH1203): 9.2 µM
AAAAAAA (ssRNA) [A7] | no binding | 
B1 |  | stoichiometry N [1]: 2
